14 molecules from paper PMC3605141, “NODULE INCEPTION Directly Targets NF-Y Subunit Genes to Regulate Essential Processes of Root Nodule Development in Lotus japonicus” can be followed below.

The target in data set [1] is T1, NIN(520-878)-myc (C-ter) (Lotus japonicus) (UniProt Q9S7B1).
T1 sequence: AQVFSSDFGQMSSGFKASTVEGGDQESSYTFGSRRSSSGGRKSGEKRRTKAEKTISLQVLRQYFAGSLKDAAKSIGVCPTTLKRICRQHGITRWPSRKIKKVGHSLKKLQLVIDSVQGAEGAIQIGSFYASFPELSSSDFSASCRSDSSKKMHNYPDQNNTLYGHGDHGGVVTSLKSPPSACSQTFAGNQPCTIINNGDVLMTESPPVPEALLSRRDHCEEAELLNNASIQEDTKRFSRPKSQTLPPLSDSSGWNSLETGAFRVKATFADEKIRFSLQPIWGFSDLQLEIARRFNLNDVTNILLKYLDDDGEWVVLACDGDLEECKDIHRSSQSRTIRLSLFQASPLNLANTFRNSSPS
The experiment in a line: EMSA. To be noted: 20 mM Hepes-KOH pH 7.9, 50 mM KCl, 1 mM MgCl2, 1 mM DTT, 4% glycerol, 0.1% Triton X-100, 2 ug BSA, 400 ng dIdC, 20 ul, 30 min at room temperature; 10-30 fmol …. (In EMSA bound probe runs differently from free probe, usually more slowly.)

For data set [2], the target named is T2, NIN-myc (Full) (Lotus japonicus) (UniProt Q9S7B1).
T2 sequence: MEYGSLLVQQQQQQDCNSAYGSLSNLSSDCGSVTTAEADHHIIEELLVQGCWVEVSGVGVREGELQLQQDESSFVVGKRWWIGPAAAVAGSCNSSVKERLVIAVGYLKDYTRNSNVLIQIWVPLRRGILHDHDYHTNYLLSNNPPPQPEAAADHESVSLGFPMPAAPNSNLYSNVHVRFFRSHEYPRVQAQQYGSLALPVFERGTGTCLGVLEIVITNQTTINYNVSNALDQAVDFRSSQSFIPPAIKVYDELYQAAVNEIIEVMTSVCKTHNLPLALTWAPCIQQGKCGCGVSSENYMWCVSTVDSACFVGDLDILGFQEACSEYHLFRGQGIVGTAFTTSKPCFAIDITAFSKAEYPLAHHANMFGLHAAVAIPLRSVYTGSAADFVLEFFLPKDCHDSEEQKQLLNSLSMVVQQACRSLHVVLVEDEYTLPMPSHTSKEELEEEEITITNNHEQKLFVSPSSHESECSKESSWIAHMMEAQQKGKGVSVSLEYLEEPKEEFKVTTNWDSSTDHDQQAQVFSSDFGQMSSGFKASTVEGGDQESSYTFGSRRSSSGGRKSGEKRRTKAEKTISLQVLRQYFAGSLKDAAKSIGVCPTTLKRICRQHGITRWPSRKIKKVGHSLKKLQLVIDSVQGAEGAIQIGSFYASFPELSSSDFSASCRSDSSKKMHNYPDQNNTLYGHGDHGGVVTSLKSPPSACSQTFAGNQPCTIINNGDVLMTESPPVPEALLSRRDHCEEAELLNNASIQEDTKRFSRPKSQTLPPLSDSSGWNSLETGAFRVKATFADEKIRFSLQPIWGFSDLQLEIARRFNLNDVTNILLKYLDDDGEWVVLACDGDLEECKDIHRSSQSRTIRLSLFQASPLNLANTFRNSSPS
The experiment in a line: EMSA. To be noted: 20 mM Hepes-KOH pH 7.9, 50 mM KCl, 1 mM MgCl2, 1 mM DTT, 4% glycerol, 0.1% Triton X-100, 2 ug BSA, 400 ng dIdC, 20 ul, 30 min at room temperature; 10-30 fmol ….

A further data set addresses NIN(520-878)-myc (C-ter) (Lotus japonicus, UniProt Q9S7B1 520-878). Kind of data set: EMSA; 20 mM Hepes-KOH pH 7.9, 50 mM KCl, 1 mM MgCl2, 1 mM DTT, 4% glycerol, 0.1% Triton X-100, 2 ug BSA, 400 ng dIdC, 20 ul, 30 min at room temperature; 10-30 fmol 32P probe. The note with it: protein: ivt, tags: myc.

Consider “AAAGAGTGAAGATGAATATGAAATATCCCTTGGAAAGCTCTAAAG (double strand) [LjNF-YB1 probe 13]”, for which the binding result in data set [1] was “no binding”.

For “GAGAAAATGCTAGTTTTTAAAAAGAGAACCTTTATTTTTTTAAATATTGTATTTACGAAGAAAACTGAAAAAGAACAGATGATTTCAGTTAGATTGCTTGGCCCCCTTCTTATCTGGACAGGCATTTTCCTG (double strand) [LjNF-YA1 probe 9]”, the binding result in data set [1] and in data set [2] was “binds” each time.

Take “GGCCTTTGAGGCCGCTCAAAAGAGTGAAGATGAATATGAAAT (double strand) [LjNF-YB1 probe 12]”: in data set [1], the binding entry is given as “no binding”.

“GTTAATGGATGCTGAGAAGGCCTTTGAGGCCGCTCAAAAGAGTGAAGATGAATATGAAATATCCCTTGGAAAGCTCTAAAG (double strand) [LjNF-YB1 probe 9]”: the binding result in data set [1] and in data set [2] was “binds” each time.

With “TACAATTCTTTACTTTCAATACAAAAAACCCCATCAATTTACTTGTATCTTTAG (double strand) [LjNF-YB1 probe 15]”, the binding entry in data set [1] is recorded as “no binding”.

As to “TCACTTTGGTGGATGTGGATATACAATTCTTTACTTTCAATACAAAAAACC (double strand) [LjNF-YB1 probe 16]”, the binding entry in data set [1] is on record as “no binding”.

Regarding “TCACTTTGGTGGATGTGGATATACAATTCTTTACTTTCAATACAAAAAACCCCATCAATTTACTTGTATCTTTAGAGCTTTCCAAGGGATATTTC (double strand) [LjNF-YB1 probe 10]”, the binding result in data set [1] and in data set [2] was “binds” throughout.

As for “TCTTTTGAGCGGCCTCAAAGGCCTTCTCAGCATCCATTAAC (double strand) [LjNF-YB1 probe 11]”, in data set [1], the binding result was “no binding”.

B1: NBS-yB1a m12 (dsDNA)
DNA 1: TACTTGTATCTTTAGAGCTTTCGTTGGGATATTTC
DNA 2: GAAATATCCCAACGAAAGCTCTAAAGATACAAGTA
Turning to B1, in the data set with NIN(520-878)-myc (C-ter) (label: 32P as probe), the binding result is “no binding”.

B2: NBS-yB1a m14 (dsDNA)
DNA 1: TACTTGTATCTTTAGAGCTTTCCAAGGGTATTTTC
DNA 2: GAAAATACCCTTGGAAAGCTCTAAAGATACAAGTA
Take B2: the binding result with NIN(520-878)-myc (C-ter) (label: 32P) is “no binding”.

B3: probe 14 m3 (dsDNA)
DNA 1: AAACCCCATCAATTTACTTGTTAGAAAAGAGCTTTCCAAGGGATATTTC
DNA 2: GAAATATCCCTTGGAAAGCTCTTTTCTAACAAGTAAATTGATGGGGTTT
With B3, the binding result with NIN(520-878)-myc (C-ter) (label: 32P) is on record as “no binding”.

B4: NBS-yB1a m13 (dsDNA)
DNA 1: TACTTGTATCTTTAGAGCTTTCCAACCCATATTTC
DNA 2: GAAATATGGGTTGGAAAGCTCTAAAGATACAAGTA
For B4, the binding result with NIN(520-878)-myc (C-ter) (label: 32P) was “no binding”.

B5: NBS-yB1a m8 (dsDNA)
DNA 1: TACTTGTATCAAAAGAGCTTTCCAAGGGATATTTC
DNA 2: GAAATATCCCTTGGAAAGCTCTTTTGATACAAGTA
Consider B5, for which the binding result with NIN(520-878)-myc (C-ter) (label: 32P) is reported as “no binding”.

B6: probe 14 m5 (dsDNA)
DNA 1: AAACCCCATCAATTTACTTGTATCTTTAGAGCTTTCCAACCCTATTTTC
DNA 2: GAAAATAGGGTTGGAAAGCTCTAAAGATACAAGTAAATTGATGGGGTTT
Take B6: in the data set with NIN(520-878)-myc (C-ter) (label: 32P), the binding result was “no binding”.
